Assay type in all cases: physicochemical
Data set [1] can be described thus: Protein precipitation facilitated by trace levels of silicone (lubricated polypropylene syringe). To be noted: adjusted to 0.02% (w/v) polysorbate 80. The source says: The silicone oil was introduced into the product upon use of standard lubricated polypropylene syringes equipped with siliconized rubber stoppers. […] The aggregation, deamidation and subsequent precipitation caused by denaturation at the air-liquid interface has become more discernable problematic with the drug being shipped to more clinical sites. Both causes of protein precipitation have been resolved by the addition of polysorbate 80 at a concentration of 0.02% (w/v).
An evaluation of the ability of 0.02% (w/v) polysorbate 80 to inhibit the protein precipitation facilitated by trace levels of silicone was conducted. […] The material was allowed to stand for several hours at room temperature.

Data set [2] in a line: Agitation-induced precipitation: vials shaken at 150 rotations per minute.
Data set [3] in a line: 65 mg/mL liquid formulation: appearance and SEC. The note with it: 65 mg/mL in 10 mM sodium phosphate, 140 mM sodium chloride, pH 6, about 0.06% polysorbate 80.
Data set [4] is described as follows: Lyophilized formulation reconstituted to 100 mg/mL: reconstitution, appearance, SEC. The note with it: immediately after lyophilization and after 2 wks at 40 deg. Here is the method:
The solution was filled at 5 mL per vial into 10 mL borosilicate glass vials and fitted with gray butyl rubber lyophilization stoppers. Lyophilization was done using a Virtis Gensis model lyophilizer. The product was frozen at a shelf temperature of −60° C. for 10 hours and then the shelf temperature was raised to −40°. Primary drying was performed at a shelf temperature of −10° C. and a chamber pressure of 100 mTorr for 20 hours. […] The vials were stoppered under vacuum.
The samples were analyzed immediately after lyophilization and after 2 wks of storage in the lyophilized form at 40 deg.

Data set [5] in a line: Antibody aggregation with partially degraded polysorbate 80 (shaking and siliconized syringes). To be noted: control samples without polysorbate 80, same conditions. As for the experimental part: This material was diluted one-to-one with a 10 mg/mL solution of AN100226 in Formulation #2 resulting in a solution containing 0.01% (w/v) polysorbate 80 and 50% of the maximum level of degraded polysorbate 80.

The values below come from patent US8815236B2, “Method for treating multiple sclerosis and crohn's disease” (Biogen Idec MA, Inc., priority 2003, dated 2014).

On to natalizumab, for which the “particles after 0.2 μm filtration into 5-mL vial” value in data set [1] (after syringe exposure, after several days) is recorded as “substantially free of particles”. Besides, the “precipitation by visual inspection” value in data set [1] (lubricated 60 mL polypropylene syringe, several hours at room temperature) was “no precipitation”. For the same substance, the “appearance of vials after shaking” value in data set [2] (5 mg/mL, Lot No. AN100226-0003 with 0.02% (w/v) polysorbate 80 added, 150 rotations per minute, room temperature, within 3 hours) was “remained clear and free of particles”. Besides, in data set [2] (vials completely filled, absence of polysorbate 80, shaken for extended periods of time), the “particle formation on shaking” value is recorded as “without additional particle formation being induced”. Moreover, in data set [3], the appearance of solution result is given as “slightly opalescent but without particulates”. Besides, in data set [4] (100 mg/mL reconstituted), the “appearance of reconstituted solutions” value was “clear and colorless with an absence of particulate material”. Further, the reconstitution times result in data set [4] (lyophilized from 5 mM histidine, 20 mg/mL sucrose, 0.02% polysorbate 80, pH 6, 1 mL WFI to 100 mg/mL) was “immediate”. Further, the “precipitation of the antibody” value in data set [5] is reported as “significant precipitation”.
